Measurements from the supplement of paper PMC10567573.

B1: HNF4A (parent)
chain: RFSRQCVVDKDKRNQCRYCRLKKC

Variants of: B1
Assay: protein stability index of a GFP-peptide fusion (GPS, HEK-293T) (PSI 1-6); higher = more stable
Details: c terminus: a fixed tail appended
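Further: lentivirally expressed fusions sorted by FACS into six bins by GFP to DsRed ratio, PSI derived from sequencing read proportions per bin multiplied by bin number.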

Protein stability index, by site and new letter:
C19: D 4.09; A 3.07; G 3.04; F 2.39; I 2.03; M 3.08; H 3.07; L 3.07
D9: G 3.04; P 2.48; K 2.13; R 3.01; C 2.69; A 2.07; Y 2.33; V 2.33; F 2.13; N 2.67; I 2.12; S 2.92; T 2.27; E 2.52; Q 2.78; M 3.42; H 3.9; L 1.92; W 1.68
R13: L 2.22; Y 2.76; C 3.06; H 2.98; K 2.4; T 2.99; S 2.65; I 2.38; A 2.11; F 2.56; W 1.93; E 2.02; N 3.03; G 2.21; P 1.84; V 2.7; D 3.2; M 3.02; Q 2.83
K12: C 2.07; D 2.13; N 2.41; H 2.93; G 2.76; F 2.25; S 2; A 1.51; M 1.97; V 1.99; I 2.54; P 2.76; T 2.85; W 2.28; Q 2.52; L 1.91; Y 2.25
K10: A 1.7; H 2.79; V 2.47; L 2.37; M 2.9; W 2.59; P 2.8; S 2.02; T 2.41; D 2.49; G 2.55; F 1.98; Q 2.95; E 2.14; I 1.75; Y 2.82; R 2.78; C 2.25; N 2.43
Y18: C 3.61; H 3.64; E 3.41; P 3; R 3.36; T 3.2; N 3.78; K 3.73; F 2.63; S 3.69; L 2.19; A 2.2; M 3.13; Q 3.54; I 3.54; G 3.04
R4: H 3.57; S 2.44; G 2.6; V 2.59; N 2.53; Q 2.8; T 1.62; E 2.6; C 3.38; M 2.91; L 1.79; D 2.27; W 2.4; K 2.58; P 1.54; F 1.9; I 1.85
V8: F 2.38; D 2.8; Q 2.66; E 2.19; P 2.38; Y 2.98; N 1.86; M 2.56; C 3.21; R 3.24; T 2.6; W 2.4; S 2.48; I 2.9; A 2; H 3.87; K 2.86
F2: G 2.96; Q 3.63; T 3.08; E 3.6; M 2.89; D 3.45; N 3.39; V 2.37; R 3.37; K 3.31; Y 3.32; A 3.77; H 3.34; S 4.23; P 3.45; I 2.39; W 2.37; L 3.06
R1: E 3.43; P 2.5; M 1.54; Q 2.66; L 2.31; W 2.21; C 2.95; F 1.94; V 1.53; I 2.65; G 2.64; S 2.18; H 3.54; T 2.24; D 2.59; A 2.4; N 2.44; Y 2.19; K 2.4
Q15: K 2.85; M 2.48; I 2.33; G 2.37; R 2.73; D 2.89; H 1.96; A 2.47; P 2.21; E 2.34; L 2.78; S 2.79; C 2.8; Y 2.48; V 2.52; F 2.12; T 2.68
C6: G 2.87; V 2.62; M 2; Y 2.32; Q 3.36; F 2.89; D 2.47; K 3.17; P 2.72; A 3.24; E 2.82; T 2.29; S 2.72; N 2.86; I 2.33; R 2.6; W 1.29; H 2.77; L 1.99
C16: N 3.31; V 3.33; W 3.37; A 2.56; Q 3.38; R 4.33; K 3.1; I 2.93; G 2.61; E 4.05; H 3.9; Y 3.48; L 2.92; T 3.56; F 2.97; P 3.58; S 3.52
Q5: T 2.16; C 2.04; Y 2.22; L 2.56; P 2.39; K 2.43; H 2.5; F 2.18; A 2.24; G 2.38; I 2.16; W 2.4; S 2.96; D 2.3; V 2.26; E 3.29; M 3.11; N 2.6; R 2.83
R17: F 2.57; P 2.9; N 3.45; C 2.29; A 2.77; Q 3.42; H 2.83; D 3.29; V 2.21; M 2.79; L 1.84; W 2.42; T 2.69; S 2.4; E 3.78; Y 2.21; I 2.9; K 2.54; G 3.16
V7: C 2.62; K 2.6; Y 2.93; P 2.96; H 2.38; D 4.05; I 2.13; F 1.94; M 2.41; N 2.21; L 2.48; T 2.73; Q 2.05; G 2.37; W 2.47; R 2.4; A 2.4; E 2.05; S 2.1
N14: T 2.31; G 2.57; H 3.45; Q 2.18; W 2.27; K 2.23; D 2.24; P 2.72; A 1.5; M 1.98; E 2.95; L 2.87; C 3.46; F 2.16; V 2.6; I 2.39; S 2.96; Y 3.62
D11: M 2.65; L 2.21; H 2.97; V 2.37; S 2.04; R 2.65; E 2.19; K 2.4; F 2.63; G 2.55; Q 2.63; I 2.41; T 2.32; A 2.28; C 3.51; N 2.4; P 2.9; Y 2.45
S3: D 2.58; W 1.52; A 2.59; V 2.17; N 2.76; H 2.7; F 1.91; T 2.67; I 2.77; K 3.33; E 3.07; M 2.33; G 2.34; L 2.08; C 3.62; Y 2.95; R 3.1; P 3.26; Q 2.5
